# Test results published in patent US20250019422A1 (MAX PLANCK GESELLSCHAFT ZUR F RDERUNG DER WISSENSCHAFTEN E V, published 2025).
# Numbering of substitutions follows the chain as printed.
# B1: Re32D03 (VHH)
# VHH: QVQLVESGGGLVQPGGSLRLSCAISGITLDYYAVGWFLQAPGKEREGISCMRNWDGRTVYAPSVKGRFTISSDNAKKMVYLEMDNLKSEDTGVYYCAAGPLPPGISCRIPTPLGYDDWGQGTQVTVSS
# B2: Re9B09 (VHH)
# VHH: QVQLVESGGGLVQPGGSLRLSCAASGFTLDYYAIGWFRQAPGKEREGVSRISSSDGSTDYADSVKGRFTISRDNAKNTVYLQMNSLKPEDTAVYYCATVPGTYYSGNWYYTWHPEAVDYWGKGTQVTVSS
# notes: also called ReB09
# B3: Re32F02 (VHH)
# VHH: QVQLVESGGGLVSPGGSLKLSCAASGLTLDYYGIGWFRQVPGKEREGVSCLGVPDNRTLYAPSVKGRFTISRDNAKNTYYLEMNSLNPEDSAVYYCAAGPVVPGHMCRIPTPLGYDYWGQGTLVTVSS
# B4: Re31A12 (VHH)
# VHH: QVQLVESGGGLVQSGGSLRLSCLTSGVTLDYYAIGWFRQAPGKEREGVSCTSSSDGSTNYSDSVKGRFIISRDNAKNTVYLQMNSLKPEDTAVYYCAVTPATYYGGRYYFQCPYHDMHYWGKGTLVTVSS
# B5: Re6H06 (VHH)
# VHH: QVQLVESGGGLVQPGGSLRLSCAASGVTLDYYAIGWFRQAPGKEREGVSCTSSSDGSTYYADSVKGRFTISRDNAKNTVYLQMNSLKPEDTGVYYCAVVPQTYYGGKYYSQCTANGMDYWGKGTLVTVSS
# B6: Re31A08 (VHH)
# VHH: QVQLVESGGGLVQPGGSLRLSCAASGITLDYYSIGWFRQAPGKEREGVSCTSSRDDSTDYADSVKGRFTISRDNAKNSVYLQMNSLNPEDTAVYYCALTPATYYSGRYYFQCPPHGMDYWGKGTLVTVSS
# B7: Ma2E06 (VHH)
# VHH: QVQLVESGGDLVQPRGSLRLSCAASGITLDYYAIGWFRQAPGKEREGVSYISNTNDKTDYADSVKGRFTISRDNAENTVFLQMNSLQPEDTAVYYCATVPGTYYGGRWYYTWHPEAVRYWGKGTQVTVSS
# notes: also called Ma02E06
# B8: Re32C08 (VHH)
# VHH: QVQLVESGGGLVQPGGSLRLSCETSGITLDYYAIGWFLQAPGKEREGVACMRNWDGSTVYAPSVKGRFTISRDNDKKAAYLEMNSLKSEDTGVYYCAAGPLPPGHSCRIPTPLGYDDWGQGTQVTVSS
# B9: Re32A10 (VHH)
# VHH: B8 VHH with E23A, A49S, N53S, W54S, D75A, A78M, A79V, H105T
# B10: Ma6F06 (VHH)
# VHH: B8 VHH with E23A, A40V, V59L, N74A, K77E, A78V
# B11: Re32G01 (VHH)
# VHH: B8 VHH with E44D, V59L, N74A, K77E, A78V
# B12: Re32E06 (VHH)
# VHH: B8 VHH with V59L, A79V
# B13: Re32B02 (VHH)
# VHH: B8 VHH with E23A, A49S, N53S, W54S, D75A, A78M, A79V, H105T
# B14: Re5D06R15 (VHH)
# VHH: QVQLVESGGGLVQPGGSLRLSCAASGITLDYYAMGWFREAPGKEREGVARIRNSDGSTNYADSVKGRFTMSRDNAKDTYYLQMNSLEPEDTADYYCAYGPLTKYGSSWYWPYEYDYWGQGTQVTVSS
# B15: Re5D06 (VHH)
# VHH: B14 VHH with M34I, E39Q, A49S, N53S, D77N, Y79V, E87K, D93V
# Target: T1, wt_RBD-AviHis (SARS-CoV-2 (original Wuhan strain))
# Assay: BLI: biotinylated wild type RBD immobilised, VHH in solution, mass transport fit
row,Binder,Kd [nM]
1,B1,≤ 0.01
2,B2,0.03

# Target: T1, wt_RBD-AviHis
# Assay: BLI (Octet), biotinylated RBD on streptavidin biosensors, VHH in solution
row,Binder,Kd [nM]
1,B1,≤ 0.01
2,B2,≤ 0.01
3,B3,≤ 0.01
4,B4,0.12
5,B5,≤ 0.01
6,B6,0.06
7,B7,0.04
8,B8,≤ 0.01
9,B9,0.004
10,B10,≤ 0.01
11,B11,0.016
12,B12,≤ 0.01
13,B13,≤ 0.01
14,B14,≤ 0.01

# Target: T1, wt_RBD-AviHis
# Assay: BLI: biotinylated wild type RBD immobilised, VHH in solution, mass transport fit
# Remark: another data set of the same source
row,Binder,Kd [nM]
1,B5,≤ 0.01
2,B15,≤ 0.01
